Laboratory results from PMC4319926, “Deciphering the Stepwise Binding Mode of HRG1β to HER3 by Surface Plasmon Resonance and Interaction Map” (PLoS ONE, 2015).

Experiments:
Conditions in all cases: both partners purified
[1] = target: T1, human HER3 extracellular domain (human, UniProt P21860 20-643); experiment: SPR; assay C: Biacore T200, 25°C; HER3 bound to mAb208 captured by immobilised rabbit anti-mouse antibody on CM5; HRG1β injected at 105-1.3 nM, 60 µl/min, 5 min association, 10 min dissociation; 10 mM HEPES pH 7.4, 150 mM NaCl, 1 mM EDTA, Tween 20, 1 mg/ml carboxymethyldextran; evaluated by 1:1 Langmuir fit (apparent), two-state reaction model and Interaction Map
T1 construct: HER3 (ErbB3) receptor extracellular domain, human, MW 68 kDa; Printed MW 68 kDa; also called ECD3; HER3-ECD; source: from Dr. Birgit Bossenmaier, Roche Diagnostics GmbH, Penzberg
T1 sequence (P21860 20-643): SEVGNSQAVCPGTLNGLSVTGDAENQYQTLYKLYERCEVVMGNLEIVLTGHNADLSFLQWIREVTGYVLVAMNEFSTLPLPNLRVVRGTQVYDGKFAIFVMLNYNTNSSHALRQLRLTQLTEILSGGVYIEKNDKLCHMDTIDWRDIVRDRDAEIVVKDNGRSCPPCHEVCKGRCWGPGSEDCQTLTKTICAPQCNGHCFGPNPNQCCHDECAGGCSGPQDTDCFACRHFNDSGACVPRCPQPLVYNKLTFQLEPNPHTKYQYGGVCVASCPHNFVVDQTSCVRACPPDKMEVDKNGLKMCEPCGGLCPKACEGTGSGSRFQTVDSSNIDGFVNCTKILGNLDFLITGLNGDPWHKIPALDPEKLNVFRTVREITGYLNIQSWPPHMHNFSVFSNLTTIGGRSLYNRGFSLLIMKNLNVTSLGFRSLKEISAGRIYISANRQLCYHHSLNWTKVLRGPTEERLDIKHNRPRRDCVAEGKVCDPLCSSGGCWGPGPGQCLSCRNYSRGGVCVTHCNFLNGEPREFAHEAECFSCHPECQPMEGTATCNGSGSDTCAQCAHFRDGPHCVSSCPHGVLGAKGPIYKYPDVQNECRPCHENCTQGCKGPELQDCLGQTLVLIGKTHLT

HER3-Avi-biotin = target: T2, HER3-Avi-biotin (human, UniProt P21860 20-643, single biotin on the C-terminal Avi-Tag); experiment: SPR; assay D: Biacore T200, 25°C; HER3-Avi-biotin captured via streptavidin on CAP chip, no mAb208; HRG1β injected at 105-1.3 nM, 60 µl/min, 5 min association, 10 min dissociation; same sample buffer; evaluated by 1:1 Langmuir fit, two-state reaction model and Interaction Map
T2 construct: HER3 (ErbB3) extracellular domain with C-terminal Avi-Tag, singly biotinylated, MW 70 kDa; Printed MW 70 kDa; It was captured through streptavidin on a Biotin CAPture chip; also called bi-ECD3; biotinylated HER3-Avi; source: gift of pRED, Roche Diagnostics GmbH (Dr. Jürgen Schanzer); not shown: Avi-Tag, C-terminal, kept
T2 sequence (P21860 20-643): as above

[2] = target: T1, human HER3 extracellular domain; experiment: SPR; assay C: Biacore T200, 25°C; HER3 bound to mAb208 captured by immobilised rabbit anti-mouse antibody on CM5; HRG1β injected at 105-1.3 nM, 60 µl/min, 5 min association, 10 min dissociation; 10 mM HEPES pH 7.4, 150 mM NaCl, 1 mM EDTA, Tween 20, 1 mg/ml carboxymethyldextran; evaluated by 1:1 Langmuir fit (apparent), two-state reaction model and Interaction Map; remark: listed apart in the source

B1: human heregulin β1 (ligand, UniProt Q02297-6 20-246, looked up)
chain: SGKKPESAAGSQSPALPPRLKEMKSQESAAGSKLVLRCETSSEYSSLRFKWFKNGNELNRKNKPQNIKIQKKPGKSELRINKASLADSGEYMCKVISKLGNDSASANITIVESNEIITGMPASTEGAYVSSESPIRISVSTEGANTSSSTSTSTTGTSHLVKCAEKEKTFCVNGGECFMVKDLSNPSRYLCKCPNEFTGDRCQNYVMASFYKHLGIEFMEAEELYQK
notes: heregulin β1 (neuregulin-1, beta 1 isoform), human, MW 25 kDa; The printed MW of 25 kDa is larger than an EGF-like domain alone; also called HRG1β; Heregulin 1 beta; source: from Dr. Birgit Bossenmaier, Roche Diagnostics GmbH, Penzberg
Q: Which results are given for B1?
A: stoichiometry N [1]: 0.5; Kd (HER3-Avi-biotin): 0.38 nM; koff (HER3-Avi-biotin): 0.0046 s⁻¹; kon (HER3-Avi-biotin): 1.2e+07 M⁻¹ s⁻¹; stoichiometry N (HER3-Avi-biotin): 0.84; Kd [2]: 0.33 nM; koff [2]: 0.04 s⁻¹; kon [2]: 1.2e+08 M⁻¹ s⁻¹; stoichiometry N [2]: 0.56
